The target of one assay is T1, TNFRSF7(CD27) (UniProt P26842 21-192, limits assumed).
T1 construct: Bought protein
T1 sequence (looked up): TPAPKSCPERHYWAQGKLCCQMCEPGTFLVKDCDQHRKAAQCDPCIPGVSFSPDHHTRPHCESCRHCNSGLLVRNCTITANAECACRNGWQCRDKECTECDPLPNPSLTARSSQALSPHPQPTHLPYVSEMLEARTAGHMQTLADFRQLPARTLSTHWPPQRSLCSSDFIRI
As to the kind of experiment: antigen ELISA, receptor coated at 10 ug/ml, detection with HRP anti-human IgG. In general terms: ELISA stands for enzyme-linked immunosorbent assay.

A further assay deals with T2, human CD40 ECD (human, UniProt P25942 21-194).
T2 construct: also called TNFRSF5(CD40); huCD40
The description is as above.

The target in a further assay is T3, TNFRSF1A(CD120a) (UniProt P19438 22-211, limits assumed).
T3 construct: Bought protein
T3 sequence (looked up): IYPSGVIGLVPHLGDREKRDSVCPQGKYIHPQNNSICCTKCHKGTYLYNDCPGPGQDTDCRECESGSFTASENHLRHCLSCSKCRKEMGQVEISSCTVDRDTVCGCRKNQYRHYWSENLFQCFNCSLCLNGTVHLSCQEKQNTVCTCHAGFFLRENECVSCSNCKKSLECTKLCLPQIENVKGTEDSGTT
The assay is described as above.

The target in a further assay is T4, TNFRSF1B(CD120b) (UniProt P20333 23-257).
T4 construct: Bought protein
T4 sequence (looked up): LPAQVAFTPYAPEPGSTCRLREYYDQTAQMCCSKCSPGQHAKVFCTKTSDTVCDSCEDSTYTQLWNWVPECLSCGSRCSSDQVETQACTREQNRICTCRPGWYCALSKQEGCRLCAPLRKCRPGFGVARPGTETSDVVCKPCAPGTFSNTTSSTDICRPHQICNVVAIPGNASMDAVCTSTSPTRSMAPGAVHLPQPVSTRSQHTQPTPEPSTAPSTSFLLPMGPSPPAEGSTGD
Described as above.

The target in assay [1] is T5, full-length human CD137 (huCD137) (human, UniProt Q07011 24-255).
T5 construct: On transduced Hut78 cells (Hut78/huCD137), transiently on HEK293 cells, or natively on PBMC/T cells; also called TNFRSF9; 4-1BB
As to the kind of experiment: flow cytometry ligand competition on Hut78/huCD137: human CD137 ligand ECD-mIgG2a in the presence of serially diluted antibody, ligand detected with goat anti-murine IgG-APC; blocked ligand: m5. For orientation: In flow cytometry, cells or beads pass a laser one at a time.

In assay [2] the target is T5, full-length human CD137 (huCD137). In words: flow cytometry ligand competition on Hut78/huCD137: BGA-4712 (VH-Fc) in the presence of serially diluted human CD137 ligand-mIgG2a, bound BGA-4712 detected with anti-hu IgG Fc; competitor: BGA-4712 [panel C].
Source text: Cell fluorescence was quantified using a flow cytometer (Guava easyCyte™ 8HT, Merck-Millipore, USA). Ligand competition was also applied in a flow cytometry based assay.
Assay [3] concerns the target human CD137 ECD-mIgG2a (human). In words: competition ELISA on coated human CD137 ECD-mIgG2a: BGA-5623 (IgG4) in the presence of serially diluted human CD137 ligand ECD-mIgG2a, bound antibody detected with HRP anti-human IgG; competitor: BGA-5623 (IgG4).
The target in assay [4] is T6, human CEA on cells (human, UniProt P06731 35-685).
T6 construct: whole, on cells; also called CT26/CEA; MKN45
T6 sequence (looked up): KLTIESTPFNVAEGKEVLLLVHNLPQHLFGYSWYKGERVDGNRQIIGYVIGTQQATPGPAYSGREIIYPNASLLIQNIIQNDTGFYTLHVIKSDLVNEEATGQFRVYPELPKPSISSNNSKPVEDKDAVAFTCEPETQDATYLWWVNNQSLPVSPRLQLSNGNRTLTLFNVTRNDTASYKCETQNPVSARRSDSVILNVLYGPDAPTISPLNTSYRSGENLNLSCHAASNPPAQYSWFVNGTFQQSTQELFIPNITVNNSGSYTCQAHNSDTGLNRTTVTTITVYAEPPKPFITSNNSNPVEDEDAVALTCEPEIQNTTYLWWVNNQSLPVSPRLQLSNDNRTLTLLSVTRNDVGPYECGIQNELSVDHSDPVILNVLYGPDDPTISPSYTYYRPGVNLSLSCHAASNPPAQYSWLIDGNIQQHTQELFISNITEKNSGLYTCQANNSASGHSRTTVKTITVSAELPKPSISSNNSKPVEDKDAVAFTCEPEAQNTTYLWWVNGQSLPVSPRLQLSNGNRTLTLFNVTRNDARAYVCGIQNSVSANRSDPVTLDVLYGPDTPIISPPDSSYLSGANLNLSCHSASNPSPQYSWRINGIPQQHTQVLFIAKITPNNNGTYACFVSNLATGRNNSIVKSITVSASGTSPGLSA
In words: flow cytometry on MKN45 cells [panel A].

The target in assay [5] is T6, human CEA on cells. As to the kind of experiment: flow cytometry on CT26/CEA cells [panel A].
In assay [6] the target is T5, full-length human CD137 (huCD137). As to the kind of experiment: flow cytometry on Hut78/huCD137 cells [panel B].
The target in assay [7] is human CD137 ECD-mIgG2a (human). In words: SPR, human CD137 ECD-mIgG2a. A general note: In SPR one partner is held on a chip, and binding of the other changes the refractive index at the surface.
Assay [8] has as its target T6, human CEA on cells. In words: flow cytometry on CT26/CEA cells.
Assay [9] deals with T5, full-length human CD137 (huCD137). In words: flow cytometry on Hut78/huCD137 cells.
Assay [10] addresses human CD137 ECD-mIgG2a (human). As to the kind of experiment: SPR, antibody captured on anti-human Fc surface; analyte taken as human CD137 ECD-mIgG2a.
Assay [11] addresses human CD137 ECD-mIgG2a (human). As to the kind of experiment: SPR, human CD137 ECD-mIgG2a. This is another data set of the same source.
The target of assay [12] is T5, full-length human CD137 (huCD137). As to the kind of experiment: flow cytometry on Hut78/huCD137 cells. This is another data set of the same source.
In assay [13] the target is human CD137 ECD-mIgG2a (human). As to the kind of experiment: SPR, multispecific antibody captured on anti-human IgG Fc chip, human CD137 ECD-mIgG2a flowed over.
Procedure: Briefly, anti-human IgG (Fc) antibody was immobilized on an activated CM5 biosensor chip (Cat.: BR100839, GE Life Sciences). Anti-huCD137 monoclonal antibodies or multispecific antibodies were flown through the chip surface and captured by anti-human IgG (Fc) antibody. […] The equilibrium dissociation constant (KD)) was calculated as the ratio koff/kₒₙ.
Assay [14] concerns the target T7, human CD137 ECD (AA 24-183) (human, UniProt Q07011 24-183).
T7 construct: also called huCD137
As to the kind of experiment: method and huCD137 construct not stated.

For a further assay, the target named is T8, recombinant CEA protein (human, UniProt P06731 35-685, limits assumed).
T8 construct: also called recombinant soluble CEA; in-house made recombinant CEA proteins
T8 sequence (looked up): T6 sequence (looked up)
In words: method and CEA construct not stated (TAA KD).

Residue numbers refer to the chain shown, from its start. Like-named read-outs stand apart in the source and are kept apart here.

Sequence of human CD137 ECD-mIgG2a (human) (chain, as listed by the source limits assumed): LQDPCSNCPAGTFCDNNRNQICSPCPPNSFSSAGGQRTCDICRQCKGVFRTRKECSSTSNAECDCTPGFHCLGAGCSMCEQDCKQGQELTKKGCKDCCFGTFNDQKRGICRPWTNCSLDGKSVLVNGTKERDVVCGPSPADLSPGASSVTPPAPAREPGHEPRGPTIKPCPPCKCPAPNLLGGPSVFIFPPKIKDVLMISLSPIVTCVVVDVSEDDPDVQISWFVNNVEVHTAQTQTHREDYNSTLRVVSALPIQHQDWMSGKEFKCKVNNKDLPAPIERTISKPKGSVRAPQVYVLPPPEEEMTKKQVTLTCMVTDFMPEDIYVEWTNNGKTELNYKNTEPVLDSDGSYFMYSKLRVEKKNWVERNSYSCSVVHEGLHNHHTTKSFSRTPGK
T5 sequence (Q07011 24-255 limits assumed): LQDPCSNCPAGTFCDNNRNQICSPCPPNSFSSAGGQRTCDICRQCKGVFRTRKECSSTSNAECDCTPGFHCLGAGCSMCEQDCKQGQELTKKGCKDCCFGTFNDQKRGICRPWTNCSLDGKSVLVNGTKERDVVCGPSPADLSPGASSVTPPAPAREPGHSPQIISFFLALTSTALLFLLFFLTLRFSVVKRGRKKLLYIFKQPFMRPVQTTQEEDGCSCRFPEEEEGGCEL
T2 sequence (P25942 21-194 limits assumed): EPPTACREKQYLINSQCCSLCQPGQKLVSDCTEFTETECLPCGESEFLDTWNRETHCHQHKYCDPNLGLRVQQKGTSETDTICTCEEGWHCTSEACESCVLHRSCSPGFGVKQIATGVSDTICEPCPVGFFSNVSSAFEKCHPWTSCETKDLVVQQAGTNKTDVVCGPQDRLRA
Procedure for TNFRSF1A(CD120a): (§1) For antigen ELISA, a Maxisorp immunoplate was coated with antigens and blocked with 3% BSA (w/v) in PBS buffer (blocking buffer). Monoclonal VH domain antibodies were blocked with blocking buffer for 30 min and added to wells of the ELISA plate for 1 hour.
Procedure for TNFRSF1B(CD120b): as §1
Procedure for TNFRSF7(CD27): as §1
Procedure for human CD40 ECD: as §1

B1: Urelumab analog (antibody, human IgG4 S228P, kappa, V domains shown)
VH: QVQLQQWGAGLLKPSETLSLTCAVYGGSFSGYYWSWIRQSPEKGLEWIGEINHGGYVTYNPSLESRVTISVDTSKNQFSLKLSSVTAADTAVYYCARDYGPGNYDWYFDLWGRGTLVTVSS
VL: EIVLTQSPATLSLSPGERATLSCRASQSVSSYLAWYQQKPGQAPRLLIYDASNRATGIPARFSGSGSGTDFTLTISSLEPEDFAVYYCQQRSNWPPALTFGGGTKVEIKR
Consider B1, for which the binding result with TNFRSF7(CD27), with human CD40 ECD, in the assay with TNFRSF1A(CD120a) and in the assay with TNFRSF1B(CD120b) was “no binding” in each case. The “IC50 (read off the curve)” value in [1] is ~0.03 µg/mL.

B2: human CD137 ligand-mIgG2a (Fc fusion)
chain: EPRGPTIKPCPPCKCPAPNLLGGPSVFIFPPKIKDVLMISLSPIVTCVVVDVSEDDPDVQISWFVNNVEVHTAQTQTHREDYNSTLRVVSALPIQHQDWMSGKEFKCKVNNKDLPAPIERTISKPKGSVRAPQVYVLPPPEEEMTKKQVTLTCMVTDFMPEDIYVEWTNNGKTELNYKNTEPVLDSDGSYFMYSKLRVEKKNWVERNSYSCSVVHEGLHNHHTTKSFSRTPGKGGGGSREGPELSPDDPAGLLDLRQGMFAQLVAQNVLLIDGPLSWYSDPGLAGVSLTGGLSYKEDTKELVVAKAGVYYVFFQLELRRVVAGEGSGSVSLALHLQPLRSAAGAAALALTVDLPPASSEARNSAFGFQGRLLHLSAGQRLGVHLHTEARARHAWQLTQGATVLGLFRVTPEIPAGLPSPRSE
notes: also called human CD137 ligand ECD-mIgG2a; huCD137 ligand
What is called IC50 is the concentration needed to halve the response being measured. Consider B2, for which, in assay [2], the IC50 worked out at 0.42 µg/mL. Besides, the “IC50 (read off the curve)” value with human CD137 ECD-mIgG2a [3] is ~1 µg/mL.

B3: anti-CEA Ab (IgG1) (antibody, V domains shown)
VH: QVQLVQSGAEVKKPGASVKVSCKASGYIFTSYYLHWVRQAPGQGLEWIGYINPQTGKTSYAQKFQGRVTMTRDTSTSTVYMELSSLRSEDTAVYYCAREYGNYNYPLDYWGQGTLVTVSS
VL: DIQMTQSPSSLSASVGDRVTITCRASENQYGYLAWYQQKPGKVPKLLIYNYKNLVEGVPSRFSGSGSGTDFTLTISSLQPEDVATYYCQHHLGTPYTFGQGTKVEIKR
notes: also called anti-CEA antibody
What is called EC50 (read off the curve) is the concentration that produces a half-maximal response. Lower therefore signals an effect from little substance. As for B3, the results for the concentration for a half-maximal effect (EC50 (read off the curve)) with human CEA on cells [4] and in the assay with human CEA on cells [5] were ~0.5 µg/mL and ~1 µg/mL, respectively. Also, the binding result in assay [6] is recorded as “no binding (tested: just above 10^2 ug/ml)”.

B4: A-CD137×CEA (bispecific antibody, human IgG1, kappa)
heavy: QVQLVQSGAEVKKPGASVKVSCKASGYIFTSYYLHWVRQAPGQGLEWIGYINPQTGKTSYAQKFQGRVTMTRDTSTSTVYMELSSLRSEDTAVYYCAREYGNYNYPLDYWGQGTLVTVSSASTKGPSVFPLAPSSKSTSGGTAALGCLVKDYFPEPVTVSWNSGALTSGVHTFPAVLQSSGLYSLSSVVTVPSSSLGTQTYICNVNHKPSNTKVDKKVEPKSCDKTHTCPPCPAPPAAGPSVFLFPPKPKDTLMISRTPEVTCVVVDVSHEDPEVKFNWYVDGVEVHNAKTKPREEQYNSTYRVVSVLTVLHQDWLNGKEYKCKVSNKALAAPIEKTISKAKGQPREPQVYTLPPSREEMTKNQVSLTCLVKGFYPSDIAVEWESNGQPENNYKTTPPVLDSDGSFFLYSKLTVDKSRWQQGNVFSCSVMHEALHNHYTQKSLSLSPGKGGGGSEVQLLESGGGLVQPGGSLRLSCAASGFMLSAEDVGWVRQAPGKGLEWVSAILDFGGSTYYADSVKGRFTISRDNSKNTLYLQMNSLRAEDTAVYYCARVVYHAGGGVTFDYWGQGTLVTVSS
light: DIQMTQSPSSLSASVGDRVTITCRASENQYGYLAWYQQKPGKVPKLLIYNYKNLVEGVPSRFSGSGSGTDFTLTISSLQPEDVATYYCQHHLGTPYTFGQGTKVEIKRTVAAPSVFIFPPSDEQLKSGTASVVCLLNNFYPREAKVQWKVDNALQSGNSQESVTEQDSKDSTYSLSSTLTLSKADYEKHKVYACEVTHQGLSSPVTKSFNRGEC
notes: Symmetric IgG-like; inert Fc; also called Format A
In general, Kd refers to a measure of binding affinity in units of concentration. The EC50 is the concentration at which the effect is half-maximal. One may read the koff as a measure of how fast the partners let go of each other. Read a low koff as slow dissociation. What is called kon is the rate constant with which the complex forms. High values mean faster complex formation, low ones slower complex formation. In the assay with human CD137 ECD-mIgG2a [7], B4 displayed a Kd of 360 nM. For the same molecule, the response with human CEA on cells [8] was half-maximal at 0.75 µg/mL (EC50). Also, a half-maximal effect in [9] (EC50) was put at 0.57 µg/mL. In the assay with human CD137 ECD-mIgG2a [10], this molecule gave a Kd of 360 nM, a koff of 0.00215 s⁻¹ and an on-rate (kon) of 5970 M⁻¹ s⁻¹.

B5: Format A-BGA-7556 (bispecific antibody, human IgG1, kappa)
heavy: B4 heavy with M482T, D516E, S529A, N538S, W566R, L571Q
light: B4 light
notes: Light chain by the description of Format A; also called BGA-7556 in Format A-CD137 × CEA
As to B5, the Kd in the assay with human CD137 ECD-mIgG2a [11] came to 669 nM; with human CD137 ECD-mIgG2a [13], 649 nM. Further, the EC50 in [12] was 3.23 µg/mL.

B6: BE-146 (CEA × CD137) (bispecific antibody, human IgG1, kappa)
heavy: B4 heavy with M482T, L483V, F508K, D516E, S529A, N538S, V553I, Y565T, W566R, L571Q
light: B4 light
notes: Module ratio 2:2
B6: the figures for the Kd (in assay [14]; with recombinant CEA protein) were 167 nM and 6.5 nM, respectively. For the same molecule, the “EC50 (read off the curve)” value in the assay with human CEA on cells [4] is ~0.5 µg/mL.

For the origin of these results see patent US20240209106A1 (BEIGENE SWITZERLAND, published 2024).
